Data: paper PMC5433843, “Protein Phosphatase 1 inactivates Mps1 to ensure efficient Spindle Assembly Checkpoint silencing” (eLife, 2017)

Biological target: T1, MBP-PP1-87B (Drosophila, UniProt P12982 1-302)
T1 construct: Drosophila PP1-87B (orthologue of PP1-gamma); also called MBP-87B; Protein Phosphatase 1; source: E. coli BL21-star, purified with amylose magnetic beads
Assay: pull-down; purified 6xHis-N-Mps1 fragments incubated with MBP or MBP-PP1-87B bound to amylose magnetic beads; column buffer 250 mM NaCl, 20 mM Tris-HCl pH 7.4, 1 mM EDTA, 1 mM DTT; 60 min, room temperature; western blot
Conditions: both partners purified

T1 sequence (P12982 whole entry): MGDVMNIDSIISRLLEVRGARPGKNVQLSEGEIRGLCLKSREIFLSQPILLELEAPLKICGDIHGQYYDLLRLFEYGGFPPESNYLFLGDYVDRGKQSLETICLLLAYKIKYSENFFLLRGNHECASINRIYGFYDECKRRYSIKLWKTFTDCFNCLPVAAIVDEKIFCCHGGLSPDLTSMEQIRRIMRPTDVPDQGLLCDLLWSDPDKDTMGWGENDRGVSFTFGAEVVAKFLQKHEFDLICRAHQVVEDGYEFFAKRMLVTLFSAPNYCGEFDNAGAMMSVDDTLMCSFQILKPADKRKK

binding result: binds
B1: 6xHis-N-Mps1^WT (domain or fragment, Drosophila, UniProt Q9VEH1 104-330, looked up)
chain: PSQELTNSNSNITTRRTPSAAPLKQSDSNLSFLGRFNDMGINCSSQGSPVANSEKQVAKKTAPTLQAAPSATERRPLQETETPLRNELPSTSKTKPDADFITPQVRTIGSTLAGKSRSAVSNDFRAQKVLFQTPMTVSRAAPVASDSISFSLCDTITESPDIPEPPKKAEPPKSQHPSKKSLDHVFRESDKDNVPDKVDNVEPKELVSIPAVAVPPEQPSHKTSNIL
notes: Drosophila Mps1, N-terminus 104-330 amino acids, cloned into KpnI/XhoI sites of pET30a(+); pET30a(+) may add further vector-coded residues (S-tag) besides the His tag; also called Mps1 N-terminus region (104-330 amino acids); source: E. coli BL21-star, purified with Novex Dynabeads, eluted with imidazole
